Test results taken from PMC9022012 (Journal of immunology (Baltimore, Md. : 1950), 2020).
Values belong to the molecule of their own block, whether it stands above or below them. No end group written: not given here.

Experiments:
[1] = target: HLA-DQ8 (DQA1*03:01/DQB1*03:02) (Homo sapiens, UniProt P01909+P01920, A209T/A45G/C70Q/D89A/DUP78-78/E183D/E77G/F237L/G63E/H199R/I129T/K197E/L178F/L74F/L98V/Q57E/Q76R/S185I/S97I/T217I/T49S/V73L/Y58L); experiment: Competitive ELISA HLA class II peptide-binding assay, DQ8
HLA-DR4 (DRB1*04:01) = HLA-DR4 (DRB1*04:01) (Homo sapiens, UniProt P01903+P01911, A100K/A169T/F76Y/I96L/K127E/L162R/M171V/N62H/P40V/Q125Y/R42H/S133A/S149N/S66Y/V115G/V209L/W38E); experiment: Competitive ELISA HLA class II peptide-binding assay, DRB1*04:01
HLA-DR3 (DRB1*03:01) = HLA-DR3 (DRB1*03:01) (Homo sapiens, UniProt P01903+P01911, A100K/A102G/A103R/A169T/F55Y/I96L/K41T/L162R/M171V/P40S/Q125H/Q178H/Q39Y/R42S/S66N/T106N/T262R/W38E/Y61H); experiment: Competitive ELISA HLA class II peptide-binding assay, DRB1*03:01
[2] = target: HLA-DQ2 (DQA1*05:01/DQB1*02:01) (Homo sapiens, UniProt P01909+P01920, A45G/A70V/D89A/E106A/E77G/E98D/H199R/L107V/N214S/P84L/P87L/T103K/T109R/T172A/T60S/V78E/V99I/Y58L/Y62S/Y69I/Y79F); experiment: Competitive ELISA HLA class II peptide-binding assay, DQ2
HLA-DRB4 (DRB4*01:01) = HLA-DRB4 (DRB4*01:01) (Homo sapiens, UniProt P01903+P13762, G164S); experiment: Competitive ELISA HLA class II peptide-binding assay, DRB4*01:01
[3] = target: T1, proinsulin (C-peptide) peptide on HLA-DRA*01:01 / HLA-DRB1*04:04 (human); experiment: proliferation
T1 peptide: PLALEGSLQK

[4] = target: T2, proinsulin (B-chain) peptide on HLA-DQA1*05:01 / HLA-DQB1*02:01 (human); experiment: proliferation
T2 peptide: ALYLVCGERG

[5] = target: T3, proinsulin (C-peptide) peptide on HLA-DRA*01:01 / HLA-DRB1*04:04 (human); experiment: proliferation
T3 peptide: PLALEGSLQ

[6] = target: T4, proinsulin (C-peptide) peptide on HLA-DQA1*03:01 / HLA-DQB1*03:02 (human); experiment: proliferation
T4 peptide: GGPGAGSLQPL

[7] = target: T5, proinsulin (C-peptide) peptide on HLA-DQA1*05:01 / HLA-DQB1*02:01 (human); experiment: proliferation
T5 peptide: SLQPLALEGSLQ

[8] = target: T6, proinsulin (C-peptide) peptide on HLA-DRA*01:01 / HLA-DRB1*03:01 (human); experiment: proliferation
T6 peptide: QPLALEGSLQKR

[9] = target: T7, proinsulin (B-chain) peptide on HLA-DQA1*05:01 / HLA-DQB1*02:01 (human); experiment: proliferation
T7 peptide: VCGERGFFY

[10] = target: T8, proinsulin (C-peptide) peptide on HLA-DRA*01:01 / HLA-DRB1*04:01 (human); experiment: proliferation
T8 peptide: SLQPLALEGSL

Molecule: C13-27: overlapping proinsulin peptide (15-mer) (ELGGGPGAGSLQPLA; UniProt P01308 67-81, looked up, fragment) [Peptide C13-27]
binding affinity to DQ8, in words [1]: did not show detectable binding affinity

Molecule: B11-25: overlapping proinsulin peptide (15-mer) (LVEALYLVCGERGFF; UniProt P01308 35-49, looked up, fragment) [Peptide B11-25]
binding affinity to DQ8, in words [1]: moderate to high | binding affinity to DQ2, in words [2]: moderate (binding ratio below 100 (moderate binding))

Molecule: ADVEVYRAVTPLGPPD [DQB45-57, reference compound]
IC50 [1]: 0.73 µM

Molecule: CC[C@H](C)[C@H](NC(=O)[C@@H](NC(=O)[C@H](C)NC(=O)[C@H](CCCCN)NC(=O)[C@H](CC(=O)O)NC(=O)[C@@H](NC(=O)[C@H](CCC(=O)O)NC(=O)[C@@H](NC(=O)[C@H](C)NC(=O)[C@H](CC(C)C)NC(=O)[C@H](CC(C)C)NC(=O)[C@H](CC(=O)O)NC(=O)CNC(=O)[C@H](C)N)[C@@H](C)CC)[C@@H](C)O)[C@@H](C)O)C(=O)O [E2/E7]
IC50 (HLA-DRB4 (DRB4*01:01)): 0.063 µM

Molecule: B17-C1: overlapping proinsulin peptide (15-mer) (LVCGERGFFYTPKTR; UniProt P01308 41-55, looked up, fragment) [Peptide B17-C1]
binding affinity to DQ2, in words [2]: did not show detectable binding affinity

Molecule: B20-C4: overlapping proinsulin peptide (15-mer) (GERGFFYTPKTRREA; UniProt P01308 44-58, looked up, fragment) [Peptide B20-C4]
binding affinity to DRB1*03:01, in words (HLA-DR3 (DRB1*03:01)): high (below 10 (high binding))

B1: Clone 1 (TCR)
alpha TRAV41 TRAJ49 CDR3: CAASNTGNQFYF
beta TRBV14 TRBJ2-7 CDR3: CASSQALAGVAEQYF
binding result [3]: recognises

B3: Clone 2 (TCR)
alpha TRAV13-1 TRAJ17 CDR3: CAASSKAAGNKLTF
beta TRBV6-1 TRBJ1-2 CDR3: CASSMTQGLDYGYTF
binding result [5]: recognises

B4: Clone 23 (TCR)
alpha TRAV12-3 TRAJ33 CDR3: CAMSARSNYQLIW
beta TRBV4-3 TRBJ2-3 CDR3: CASSKMGPRTDTQYF
binding result [6]: recognises

B5: Clone 3 (TCR)
alpha TRAV19 TRAJ49 CDR3: CALSDRTGNQFYF
beta TRBV9 TRBJ1-2 CDR3: CASRLSGTNIPPTYGYTF
binding result [3]: recognises

B6: Clone 22 (TCR)
alpha TRAV2 TRAJ8 CDR3: CAVEDHGTGFQKLVF
beta TRBV4-3 TRBJ2-3 CDR3: CASSQETGPTQYF
binding result [7]: recognises

B9: Clone 13 (TCR)
alpha TRAV17 TRAJ11 CDR3: CATALISGYSTLTF
beta TRBV12-3 TRBJ2-1 CDR3: CASRQQGVGYNEQFF
binding result [10]: recognises

The next lines start with results.

binding affinity to DRB1*04:01, in words (HLA-DR4 (DRB1*04:01)): abrogated | binding affinity to DQ8, in words [1]: moderate to high | binding affinity to DRB1*03:01, in words (HLA-DR3 (DRB1*03:01)): abrogated
Molecule: C19-33: overlapping proinsulin peptide (15-mer) (GAGSLQPLALEGSLQ; UniProt P01308 73-87, looked up, fragment) [Peptide C19-33]
binding affinity to DQ2, in words [2]: moderate (binding ratio below 100 (moderate binding))

binding affinity to DQ8, in words [1]: moderate to high | binding affinity to DQ2, in words [2]: did not show detectable binding affinity
Molecule: B14-28: overlapping proinsulin peptide (15-mer) (ALYLVCGERGFFYTP; UniProt P01308 38-52, looked up, fragment) [Peptide B14-28]

binding affinity to DQ8, in words [1]: moderate to high | binding affinity to DQ2, in words [2]: moderate to high
Molecule: GIVEQCCTSICSLYQ [Peptide A1-15]

binding affinity to DQ8, in words [1]: did not show detectable binding affinity
Molecule: C16-30: overlapping proinsulin peptide (15-mer) (GGPGAGSLQPLALEG; UniProt P01308 70-84, looked up, fragment) [Peptide C16-30]

binding result [4]: recognises
B2: Clone 24 (TCR)
alpha TRAV8-2 TRAJ20 CDR3: CAVSEAYKLSF
beta TRBV5-8 TRBJ2-5 CDR3: CASTEGIQETQYF

binding result [8]: recognises
B7: Clone 11 (TCR)
alpha TRAV13-1 TRAJ47 CDR3: CAAMCKLVF
beta TRBV18 TRBJ1-2 CDR3: CASSPDRQGVEYTF

binding result [9]: recognises
B8: Clone 19 (TCR)
alpha TRAV29 TRAJ33 CDR3: CAASPSDSNYQLIW
beta TRBV7-2 TRBJ1-1 CDR3: CASSFRRGSMNTEAFF
